This note sets out measurements from IntAct's records for PubMed 29892012.

To fix the notation:
B1: CD151 antigen (Homo sapiens), P48509 (parent)
chain: MGEFNEKKTTCGTVCLKYLLFTYNCCFWLAGLAVMAVGIWTLALKSDYISLLASGTYLATAYILVVAGTVVMVTGVLGCCATFKERRNLLRLYFILLLIIFLLEIIAGILAYAYYQQLNTELKENLKDTMTKRYHQPGHEAVTSAVDQLQQEFHCCGSNNSQDWRDSEWIRSQEAGGRVVPDSCCKTVVALCGQRDHASNIYKVEGGCITKLETFIQEHLRVIGAVGIGIACVQVFGMIFTCCLYRSLKLEHY
B2: Coiled-coil alpha-helical rod protein 1 (Homo sapiens), Q8TD31 (parent)
chain: MFPPSGSTGLIPPSHFQARPLSTLPRMAPTWLSDIPLVQPPGHQDVSERRLDTQRPQVTMWERDVSSDRQEPGRRGRSWGLEGSQALSQQAEVIVRQLQELRRLEEEVRLLRETSLQQKMRLEAQAMELEALARAEKAGRAEAEGLRAALAGAEVVRKNLEEGSQRELEEVQRLHQEQLSSLTQAHEEALSSLTSKAEGLEKSLSSLETRRAGEAKELAEAQREAELLRKQLSKTQEDLEAQVTLVENLRKYVGEQVPSEVHSQTWELERQKLLETMQHLQEDRDSLHATAELLQVRVQSLTHILALQEEELTRKVQPSDSLEPEFTRKCQSLLNRWREKVFALMVQLKAQELEHSDSVKQLKGQVASLQEKVTSQSQEQAILQRSLQDKAAEVEVERMGAKGLQLELSRAQEARRRWQQQTASAEEQLRLVVNAVSSSQIWLETTMAKVEGAAAQLPSLNNRLSYAVRKVHTIRGLIARKLALAQLRQESCPLPPPVTDVSLELQQLREERNRLDAELQLSARLIQQEVGRAREQGEAERQQLSKVAQQLEQELQQTQESLASLGLQLEVARQGQQESTEEAASLRQELTQQQELYGQALQEKVAEVETRLREQLSDTERRLNEARREHAKAVVSLRQIQRRAAQEKERSQELRRLQEEARKEEGQRLARRLQELERDKNLMLATLQQEGLLSRYKQQRLLTVLPSLLDKKKSVVSSPRPPECSASAPVAAAVPTRESIKGSLSVLLDDLQDLSEAISKEEAVCQGDNLDRCSSSNPQMSS
partner: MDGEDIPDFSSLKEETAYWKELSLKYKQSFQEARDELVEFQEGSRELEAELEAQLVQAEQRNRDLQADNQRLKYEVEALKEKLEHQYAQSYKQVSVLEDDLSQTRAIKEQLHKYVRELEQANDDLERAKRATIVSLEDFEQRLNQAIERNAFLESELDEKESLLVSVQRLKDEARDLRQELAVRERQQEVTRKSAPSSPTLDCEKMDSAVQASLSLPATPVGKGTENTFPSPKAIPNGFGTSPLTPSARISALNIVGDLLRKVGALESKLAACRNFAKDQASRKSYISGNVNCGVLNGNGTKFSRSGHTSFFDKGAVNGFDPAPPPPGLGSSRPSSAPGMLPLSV
B3: Ligand of Numb protein X 2 (Homo sapiens), Q8N448 (parent)
chain: MGTTSDEMVSVEQTSSSSLNPLCFECGQQHWTRENHLYNYQNEVDDDLVCHICLQPLLQPLDTPCGHTFCYKCLRNFLQEKDFCPLDRKRLHFKLCKKSSILVHKLLDKLLVLCPFSSVCKDVMQRCDLEAHLKNRCPGASHRRVALERRKTSRTQAEIENENGPTLLDPAGTLSPEADCLGTGAVPVERHLTSASLSTWSEEPGLDNPAFEESAGADTTQQPLSLPEGEITTIEIHRSNPYIQLGISIVGGNETPLINIVIQEVYRDGVIARDGRLLAGDQILQVNNYNISNVSHNYARAVLSQPCNTLHLTVLRERRFGNRAHNHSDSNSPREEIFQVALHKRDSGEQLGIKLVRRTDEPGVFILDLLEGGLAAQDGRLSSNDRVLAINGHDLKYGTPELAAQIIQASGERVNLTIARPGKPQPGNTIREAGNHSSSSQHHTPPPYYSRPSSHKDLTQCVTCQEKHITVKKEPHESLGMTVAGGRGSKSGELPIFVTSVPPHGCLARDGRIKRGDVLLNINGIDLTNLSHSEAVAMLKASAASPAVALKALEVQIVEEATQNAEEQPSTFSENEYDASWSPSWVMWLGLPSTLHSCHDIVLRRSYLGSWGFSIVGGYEENHTNQPFFIKTIVLGTPAYYDGRLKCGDMIVAVNGLSTVGMSHSALVPMLKEQRNKVTLTVICWPGSLV
partner: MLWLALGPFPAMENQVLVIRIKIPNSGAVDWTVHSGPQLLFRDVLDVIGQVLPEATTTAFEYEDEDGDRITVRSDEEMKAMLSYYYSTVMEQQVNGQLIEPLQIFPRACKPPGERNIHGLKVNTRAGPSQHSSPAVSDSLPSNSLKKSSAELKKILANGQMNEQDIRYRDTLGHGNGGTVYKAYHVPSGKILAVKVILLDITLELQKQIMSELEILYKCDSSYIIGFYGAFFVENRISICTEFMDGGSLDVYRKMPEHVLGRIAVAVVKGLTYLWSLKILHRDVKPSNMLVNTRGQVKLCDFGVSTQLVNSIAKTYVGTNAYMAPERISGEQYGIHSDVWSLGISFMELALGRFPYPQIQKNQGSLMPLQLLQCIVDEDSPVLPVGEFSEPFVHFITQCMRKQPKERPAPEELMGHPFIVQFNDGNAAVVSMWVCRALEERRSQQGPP
B4: Coiled-coil alpha-helical rod protein 1 (Homo sapiens), Q8TD31 (parent)
chain: B2 chain
partner: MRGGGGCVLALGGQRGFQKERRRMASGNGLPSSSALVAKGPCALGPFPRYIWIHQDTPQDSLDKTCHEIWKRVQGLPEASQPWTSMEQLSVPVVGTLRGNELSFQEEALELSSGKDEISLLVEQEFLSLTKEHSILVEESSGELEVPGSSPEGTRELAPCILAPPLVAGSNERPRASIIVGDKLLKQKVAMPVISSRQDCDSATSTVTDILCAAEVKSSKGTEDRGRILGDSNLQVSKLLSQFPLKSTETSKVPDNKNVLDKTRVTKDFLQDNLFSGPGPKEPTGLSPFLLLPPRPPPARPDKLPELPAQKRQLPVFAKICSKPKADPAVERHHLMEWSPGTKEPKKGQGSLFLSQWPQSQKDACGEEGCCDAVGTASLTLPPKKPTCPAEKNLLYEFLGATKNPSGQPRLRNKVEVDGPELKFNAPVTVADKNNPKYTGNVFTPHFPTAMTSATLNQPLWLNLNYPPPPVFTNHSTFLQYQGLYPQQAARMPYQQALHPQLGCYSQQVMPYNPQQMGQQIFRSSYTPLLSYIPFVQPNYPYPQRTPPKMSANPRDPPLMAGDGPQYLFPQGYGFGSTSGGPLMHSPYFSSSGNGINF

Variants of B1 are the subject of one test. Particulars: with astrc_human GRAMD1C.
With A67V, the “effect of a mutation on the interaction” value is “with no effect”.

The variants in another test derive from B1. The note with it: with astrc_human GRAMD1C. This is another data set of the same source.
With S158T, the “effect of a mutation on the interaction” value is recorded as “with no effect”.

In a further test the parent is B2. Particulars: with ndel1_human NDEL1, Q9GZM8.
For the variant W337R, the “effect of a mutation on the interaction” value was “disrupting interaction strength”.

Variants of B3 are the subject of another test. Particulars: with mp2k5_human MAP2K5, Q13163.
As for P669A, the “effect of a mutation on the interaction” value was “with no effect”.

The variants in another test derive from B4. The note with it: with ca094_human C1orf94, Q6P1W5.
For the variant W337R, the “effect of a mutation on the interaction” value was “disrupting interaction strength”.
